Blank lines part the entries; values can stand above or below the binder they belong to.
Key:
[1] = molecular target: Macaca fascicularis (crab-eating macaque) SIGLEC15 on CHO-S-fasSIGLEC15 cells (Macaca fascicularis (crab-eating macaque)); assay: flow cytometry, CHO-S cells expressing the target
[2] = molecular target: T1, His-tagged monkey SIGLEC15 protein (fasSIGLEC15-His, ACROBiosystems Inc., Cat #: SG5-C52H6) (monkey); assay: SPR (Biacore 8K), antibody captured on Protein A chip, His-tagged SIGLEC15 as analyte
T1 sequence: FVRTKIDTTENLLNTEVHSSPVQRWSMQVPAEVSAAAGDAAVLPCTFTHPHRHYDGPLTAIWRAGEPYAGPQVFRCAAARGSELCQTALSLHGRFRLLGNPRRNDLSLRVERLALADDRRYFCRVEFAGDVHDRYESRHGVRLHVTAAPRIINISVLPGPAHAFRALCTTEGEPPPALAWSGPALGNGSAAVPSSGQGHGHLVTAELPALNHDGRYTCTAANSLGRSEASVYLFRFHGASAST

Percentage of Positive Cells [1]: 49.3%
B1: anti-SIGLEC15 antibody 10A7 (antibody, human IgG1, V domains shown)
VH: EVQLVQSGGGLVQPGGSLRLSCAASGFTFSNYEMNWVRQAPGKGLEWISYISNSGSTIYYADSVKGRFTISRDDAKNSLYLQMNSLRAEDTAVYYCAREDYDSSGYYWFDPWGQGTPVTVSS
VL: DIQLTQSPSSVSASVGDRVTITCRASQGISSWLAWYQQKPGKAPKLLIYAASSLQSGVPSRFSGSGSGTDFTLTINSLQPEDFATYYCQQTNSFPLTFGGGTKVEIK

Percentage of Positive Cells [1]: 47.5% | Kd [2]: 0.0206 nM | koff [2]: 5.01e-05 s⁻¹ | kon [2]: 2.43e+06 M⁻¹ s⁻¹
B2: anti-SIGLEC15 antibody 10C9 (antibody, human IgG1, V domains shown)
VH: QVQLVQSGAEVKKPGATVKVSCKASGYTFTNYGFSWVRQAPGQGLEWMGWINTYNDNTNYAQKFQGRVTMTTDTSTSTAYMELRSLRSDDTAVYYCARDGLWFGELPHYFDYWGQGTLVTVSS
VL: DIQLTQSPLSSPVTLGQPASISCRSSQSLVNSDGETFLSWLQQRPGQPPRLLIYKISNRFSGVPDRFSGSGAGTDFTLKISRVEAEDVGVYYCMQATQFPHTFGQGTKLEIK

From patent publication US20250361296A1
